# Like-named read-outs stand apart in the source and are kept apart here.
# T1: recombinant monkey TfR (r monkey TfR: Sino Biological Inc.), crab-eating monkey TfR extracellular region with … (crab-eating monkey (Macaca fascicularis))
# T1 construct: Bought from Sino Biological; also called r monkey TfR-ECD (Histag); not shown: histidine tag at the N-terminus
# T1 chain: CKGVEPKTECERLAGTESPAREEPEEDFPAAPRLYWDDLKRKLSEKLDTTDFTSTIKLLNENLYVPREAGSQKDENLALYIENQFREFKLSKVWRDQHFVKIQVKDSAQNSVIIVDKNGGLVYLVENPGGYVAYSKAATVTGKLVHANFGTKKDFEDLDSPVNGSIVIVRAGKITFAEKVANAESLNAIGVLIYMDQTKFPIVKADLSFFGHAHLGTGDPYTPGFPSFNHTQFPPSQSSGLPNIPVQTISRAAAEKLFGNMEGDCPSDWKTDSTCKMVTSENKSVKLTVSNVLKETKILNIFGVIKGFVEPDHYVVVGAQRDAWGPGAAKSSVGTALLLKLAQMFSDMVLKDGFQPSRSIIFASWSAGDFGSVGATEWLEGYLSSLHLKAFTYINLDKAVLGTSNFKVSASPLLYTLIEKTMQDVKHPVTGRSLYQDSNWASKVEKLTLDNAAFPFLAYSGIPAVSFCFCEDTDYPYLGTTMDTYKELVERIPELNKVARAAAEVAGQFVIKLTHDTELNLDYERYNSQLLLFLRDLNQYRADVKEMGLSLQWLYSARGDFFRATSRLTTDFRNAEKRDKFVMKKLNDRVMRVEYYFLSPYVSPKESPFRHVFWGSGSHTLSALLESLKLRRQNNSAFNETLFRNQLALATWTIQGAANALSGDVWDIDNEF
# What was measured:
# Assay in all cases: BLI (Octet RED96), His-tagged TfR ECD on Ni-NTA sensor
# [1] = molecular target: T2, recombinant human TfR (r human TfR: Sino Biological Inc.), hTfR extracellular region with a histidine tag at … (human, UniProt P02786 89-760)
# T2 construct: Bought from Sino Biological; also called r human TfR-ECD (Histag); recombinant hTfR; not shown: histidine tag at the N-terminus
# Method: (§1) Each of the sample solutions prepared above by 2-fold dilution steps was added, 200 μL/well, to a 96-well plate, black (Greiner Bio-One Inc.). Each of the r human TfR-ECD (Histag) solution and the r monkey TfR-ECD (Histag) solutions prepared above was added, 200 μL/well, to predetermined wells. To respective wells for baseline, dissociation and washing were added HBS-P+, 200 μL/well. To wells for regeneration were added 10 mM Glycine-HCl (pH 1.7), 200 μL/well. To wells for activation was added 0.5 mM NiCl₂ solution, 200 μL/well. The plate and biosensor (Biosensor/Ni-NTA: ForteBio Inc., a division of Pall Corporation) were set in the prescribed positions of Octet RED96.
# (§2) The measurement was performed at 25 to 30° C.
# (§3) The affinity of humanized anti-hTfR antibody No. 3 obtained in Example 13 and humanized anti-hTfR antibody No. 3N obtained in Example 17 to human TfR and human TfR was measured by the method described in Example 7. […] Besides, the measurement indicating the affinity of humanized anti-hTfR antibody No. 3 to human TfR differed from that shown in Table 6, but is an experimental error.
# [2] = molecular target: T2, recombinant human TfR (r human TfR: …); remark: listed apart in the source
# Method: as §1, §2
# (§4) The affinity of the humanized anti-hTfR antibodies obtained in Example 13 to human and monkey TfRs was measured by the method described in Example 7.
# [3] = molecular target: T1, recombinant monkey TfR (r monkey TfR: …)
# Method: as §1, §2, §4
# [4] = molecular target: T1, recombinant monkey TfR (r monkey TfR: …)
# Method: as §1, §2
# as §3, with “TfR and monkey TfR was” for “TfR and human TfR was”, “3 to monkey TfR differed” for “3 to human TfR differed”, “in Table 7, but is” for “in Table 6, but is”
# [5] = molecular target: T2, recombinant human TfR (r human TfR: …); remark: listed apart in the source
# [6] = molecular target: T1, recombinant monkey TfR (r monkey TfR: …)
# [7] = molecular target: T2, recombinant human TfR (r human TfR: …); remark: listed apart in the source
# Method: (§5) The purified product of anti-hTfR antibody No. 3 was subjected to 2-fold dilution steps with HBS-P+ (10 mM HEPES containing 150 mM NaCl, 50 μM EDTA and 0.05% Surfactant P20) to prepare antibody solutions of 7 different concentrations, 0.78125 to 50 nM (0.117 to 7.5 μg/mL). The antibody solution was used as the sample solution. The r human and r monkey TfRs were respectively diluted with HBS-P+ to prepare 25 μg/mL solutions, which were used as r human TfR-ECD (Histag) solution and r monkey TfR-ECD (Histag) solution, respectively.
# as §1, §2
# [8] = molecular target: T1, recombinant monkey TfR (r monkey TfR: …)
# Method: as §5, §1, §2
Binder,Kd [2] [nM],koff [2] [s⁻¹],kon [2] [M⁻¹ s⁻¹],Kd [3] [nM],koff [3] [s⁻¹],kon [3] [M⁻¹ s⁻¹],further results
"humanized anti-hTfR antibody No. 3 (antibody, human IgG1, kappa, IgG1; Expressed from pE-hygr(LC3) and pE-neo(HC3) in CHO cells; also called Humanized anti-hTfR antibody 3) light: DIVMTQTPLSLSVTPGQPASISCRSSQSLVHSNGNTYLHWYLQKPGQSPQLLIYKVSNRFSGVPDRFSGSGSGTDFTLKISRVEAEDVGVYYCSQSTHVPWTFGQGTKVEIKRTVAAPSVFIFPPSDEQLKSGTASVVCLLNNFYPREAKVQWKVDNALQSGNSQESVTEQDSKDSTYSLSSTLTLSKADYEKHKVYACEVTHQGLSSPVTKSFNRGEC heavy: not shown",< 0.001,< 1e-07,1.19e+06,1.12,0.000676,603000,Kd [1]: < 0.001 nM; koff [1]: < 1e-07 s⁻¹; kon [1]: 847000 M⁻¹ s⁻¹; Kd [4]: 1.32 nM; koff [4]: 0.000806 s⁻¹; kon [4]: 609000 M⁻¹ s⁻¹
"Fab GS3-LAMAN (other, also called Fab HC-GS3-LAMAN) light: DIVMTQTPLSLSVTPGQPASISCRSSQSLVHSNGNTYLHWYLQKPGQSPQLLIYKVSNRFSGVPDRFSGSGSGTDFTLKISRVEAEDVGVYYCSQSTHVPWTFGQGTKVEIKRTVAAPSVFIFPPSDEQLKSGTASVVCLLNNFYPREAKVQWKVDNALQSGNSQESVTEQDSKDSTYSLSSTLTLSKADYEKHKVYACEVTHQGLSSPVTKSFNRGEC heavy: EVQLVQSGAEVKKPGESLKISCKGSGYSFMNYWLGWVRQMPGKGLEWMGDIYPGGDYPTYSEKFKVQVTISADKSISTAYLQLSSLKASDTAMYYCARSGNYDEVAYWGQGTLVTVSSASTKGPSVFPLAPSSKSTSGGTAALGCLVKDYFPEPVTVSWNSGALTSGVHTFPAVLQSSGLYSLSSVVTVPSSSLGTQTYICNVNHKPSNTKVDKKVEPKSCDKTHTGGGGSGGGGSGGGGSGGYETCPTVQPNMLNVHLLPHTHDDVGWLKTVDQYFYGIKNDIQHAGVQYILDSVISALLADPTRRFIYVEIAFFSRWWHQQTNATQEVVRDLVRQGRLEFANGGWVMNDEAATHYGAIVDQMTLGLRFLEDTFGNDGRPRVAWHIDPFGHSREQASLFAQMGFDGFFFGRLDYQDKWVRMQKLEMEQVWRASTSLKPPTADLFTGVLPNGYNPPRNLCWDVLCVDQPLVEDPRSPEYNAKELVDYFLNVATAQGRYYRTNHTVMTMGSDFQYENANMWFKNLDKLIRLVNAQQAKGSSVHVLYSTPACYLWELNKANLTWSVKHDDFFPYADGPHQFWTGYFSSRPALKRYERLSYNFLQVCNQLEALVGLAANVGPYGSGDSAPLNEAMAVLQHHDAVSGTSRQHVANDYARQLAAGWGPCEVLLSNALARLRGFKDHFTFCQQLNISICPLSQTAARFQVIVYNPLGRKVNWMVRLPVSEGVFVVKDPNGRTVPSDVVIFPSSDSQAHPPELLFSASLPALGFSTYSVAQVPRWKPQARAPQPIPRRSWSPALTIENEHIRATFDPDTGLLMEIMNMNQQLLLPVRQTFFWYNASIGDNESDQASGAYIFRPNQQKPLPVSRWAQIHLVKTPLVQEVHQNFSAWCSQVVRLYPGQRHLELEWSVGPIPVGDTWGKEVISRFDTPLETKGRFYTDSNGREILERRRDYRPTWKLNQTEPVAGNYYPVNTRIYITDGNMQLTVLTDRSQGGSSLRDGSLELMVHRRLLKDDGRGVSEPLMENGSGAWVRGRHLVLLDTAQAAAAGHRLLAEQEVLAPQVVLAPGGGAAYNLGAPPRTQFSGLRRDLPPSVHLLTLASWGPEMVLLRLEHQFAVGEDSGRNLSAPVTLNLRDLFSTFTITRLQETTLVANQLREAASRLKWTTNTGPTPHQTPYQLDPANITLEPMEIRTFLASVQWKEVDG",,,,,,,Kd [5]: < 0.001 nM; koff [5]: < 1e-07 s⁻¹; kon [5]: 729000 M⁻¹ s⁻¹; Kd [6]: < 0.001 nM; koff [6]: < 1e-07 s⁻¹; kon [6]: 357000 M⁻¹ s⁻¹
"humanized anti-hTfR antibody No. 3-4 (antibody, human IgG1, kappa, V domains shown, IgG1) VH: EVQLVQSGAEVKKPGESLKISCKGSGYSFTNYWLGWVRQMPGKGLEWMGDIYPGGDYPTYSEKFKVQVTISADKSISTAYLQWSSLKASDTAMYYCARSGNYDEVAYWGQGTLVTVSS VL: DIVMTQTPLSLSVTPGQPASISCRSSQSLVHSNGNTYLHWYLQKPGQSPQLLIYKVSNRFSGVPDRFSGSGSGTDFTLKISRVEAEDVGVFFCSQSTHVPWTFGQGTKVEIKR",< 0.001,< 1e-07,1.01e+06,0.26,0.000135,519000,
"humanized anti-hTfR antibody No. 3-2 (antibody, human IgG1, kappa, IgG1) light: DIVMTQSPLSLPVTPGEPASISCRSSQSLVHSNGNTYLHWYLQKPGQSPQLLIYKVSNRFSGVPDRFSGSGSGTDFTLKISRVEAEDVGVYYCSQSTHVPWTFGQGTKVEIKRTVAAPSVFIFPPSDEQLKSGTASVVCLLNNFYPREAKVQWKVDNALQSGNSQESVTEQDSKDSTYSLSSTLTLSKADYEKHKVYACEVTHQGLSSPVTKSFNRGEC heavy: not shown",0.0239,1.45e-05,606000,1.77,0.000876,495000,
"humanized anti-hTfR antibody No. 3-3 (antibody, human IgG1, kappa, IgG1) light: DIVMTQTPLSLPVTPGEPASISCRSSQSLVHSNGNTYLHWYLQKPGQSPQLLIYKVSNRFSGVPDRFSGSGSGTDFTLKISRVEAEDVGVYYCSQSTHVPWTFGQGTRLEIKRTVAAPSVFIFPPSDEQLKSGTASVVCLLNNFYPREAKVQWKVDNALQSGNSQESVTEQDSKDSTYSLSSTLTLSKADYEKHKVYACEVTHQGLSSPVTKSFNRGEC heavy: not shown",0.0209,1.25e-05,600000,1.91,0.000932,488000,
"anti-hTfR antibody No. 3 (mouse antibody produced by hybridoma Clone 3 line) (antibody, V domains shown, Whole mouse antibody purified from hybridoma supernatant on Protein G; also called mouse anti-hTfR antibody No. 3; pre-humanized anti-hTfR antibody) VH: EVQLQESGAELVRPGTSVKISCKASGYSFTNYWLGWVKQRPGHGLEWIGDIYPGGDYPTYSEKFKVKAILTADTSSSSVYLHLSSLTSEDSAVYFCARSGNYDEVAYWGQGTLVTVST VL: DIVMTQTTLSLPVSLGDQASISCRSSQSLVHSNGNTYLHWYLQKPGQSPKLLIYKVSNRFSGVPDRFSGSGSGTDFTLKISRVEAEDLGVFFCSQSTHVPWTFGGGTKLEIKR",,,,,,,Kd [7]: < 0.001 nM; koff [7]: < 1e-07 s⁻¹; kon [7]: 653000 M⁻¹ s⁻¹; Kd [8]: < 0.001 nM; koff [8]: < 1e-07 s⁻¹; kon [8]: 389000 M⁻¹ s⁻¹

# — patent US20250026846A1 (JCR PHARMACEUTICALS, published 2025)
